Assay results taken from publication PMC13044988, “Vaspin identified as a DNA‐binding serpin with functional consequences for protease inhibition”.

T1: vaspin WT (Homo sapiens, UniProt Q8IW75 21-414)
T1 sequence: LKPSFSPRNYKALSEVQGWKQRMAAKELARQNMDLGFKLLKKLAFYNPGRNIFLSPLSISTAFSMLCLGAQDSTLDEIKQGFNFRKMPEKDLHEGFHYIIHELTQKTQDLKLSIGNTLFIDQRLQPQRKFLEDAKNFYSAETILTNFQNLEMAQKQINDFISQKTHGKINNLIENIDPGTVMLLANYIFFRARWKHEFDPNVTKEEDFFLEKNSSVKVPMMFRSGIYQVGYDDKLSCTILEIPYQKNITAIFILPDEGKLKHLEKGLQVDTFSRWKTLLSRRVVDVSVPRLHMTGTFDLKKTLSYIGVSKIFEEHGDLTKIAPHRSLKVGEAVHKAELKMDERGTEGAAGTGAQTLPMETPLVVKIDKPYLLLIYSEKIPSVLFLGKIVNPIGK

T2: NHB vaspin (nonheparin-binding) (Homo sapiens, UniProt Q8IW75 21-414, K131A;K188A;R211A;K359A;R363A)
T2 sequence: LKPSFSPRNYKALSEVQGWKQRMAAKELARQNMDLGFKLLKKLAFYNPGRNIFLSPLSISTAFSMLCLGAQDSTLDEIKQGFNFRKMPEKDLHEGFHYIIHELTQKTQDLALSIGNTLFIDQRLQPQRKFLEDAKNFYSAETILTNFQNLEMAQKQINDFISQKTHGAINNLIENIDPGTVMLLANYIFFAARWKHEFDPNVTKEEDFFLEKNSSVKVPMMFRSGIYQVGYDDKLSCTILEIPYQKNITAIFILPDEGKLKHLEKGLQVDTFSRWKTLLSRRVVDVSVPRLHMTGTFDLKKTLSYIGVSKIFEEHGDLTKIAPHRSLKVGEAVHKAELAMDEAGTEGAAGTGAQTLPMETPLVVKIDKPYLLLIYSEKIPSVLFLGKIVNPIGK

T3: antichymotrypsin (ACT) (Homo sapiens, UniProt P01011 24-423)
T3 sequence: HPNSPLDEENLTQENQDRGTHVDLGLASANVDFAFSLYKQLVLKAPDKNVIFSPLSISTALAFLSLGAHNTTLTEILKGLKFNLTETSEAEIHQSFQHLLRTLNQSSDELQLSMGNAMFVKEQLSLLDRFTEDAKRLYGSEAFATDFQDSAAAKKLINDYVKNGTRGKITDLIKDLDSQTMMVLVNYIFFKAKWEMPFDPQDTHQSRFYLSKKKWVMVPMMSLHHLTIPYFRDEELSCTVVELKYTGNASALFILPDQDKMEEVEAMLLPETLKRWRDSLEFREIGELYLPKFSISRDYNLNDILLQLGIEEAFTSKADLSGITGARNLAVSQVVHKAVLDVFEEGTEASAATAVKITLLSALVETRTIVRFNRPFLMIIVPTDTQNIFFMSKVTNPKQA

B1: 120 base ssDNA (ssDNA)
DNA: GACGGATCGGGAGATCTCCCGATCCCCTATGGTGCACTCTCAGTACAATCTGCTCTGATGCCGCATAGTTAAGCCAGTATCTGCTCCCTGCTTGTGTGTTGGAGGTCGCTGAGTAGTGCG
B2: 60 base ssDNA (ssDNA)
DNA: GACGGATCGGGAGATCTCCCGATCCCCTATGGTGCACTCTCAGTACAATCTGCTCTGATG

Tests used:
[1] = target: T1, vaspin WT; experiment: DRaCALA; Buffer 2; DRaCALA: Buffer 2, 20 mM Tris/HCl pH 7.8, 15 mM NaCl, 50 nM labeled ssDNA, 10 min at 20 C; screening also in Buffer 1 (20 mM Tris/HCl pH 7.8, 150 mM NaCl) and Buffer 3 (20 mM Tris/HCl pH 7.8, 15 mM KCl); details: protein: recombinant; label: 5'-32P
[2] = target: KLK7 (kallikrein 7) (Homo sapiens, UniProt P49862 30-253); experiment: as above; details: protein: recombinant; label: 5'-32P
KLK7 (kallikrein 7), sequence (P49862 30-253): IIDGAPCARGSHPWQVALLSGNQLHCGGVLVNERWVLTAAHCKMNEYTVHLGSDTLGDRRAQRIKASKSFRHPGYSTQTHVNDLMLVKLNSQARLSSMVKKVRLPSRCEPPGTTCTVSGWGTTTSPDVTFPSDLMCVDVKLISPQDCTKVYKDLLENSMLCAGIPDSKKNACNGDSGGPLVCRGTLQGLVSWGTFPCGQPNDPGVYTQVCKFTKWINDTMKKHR

[3] = target: T2, NHB vaspin (nonheparin-binding); experiment: as above; details: protein: recombinant; label: 5'-32P
[4] = target: T3, antichymotrypsin (ACT); experiment: DRaCALA; Buffer 1 (150 mM NaCl), 1 uM protein; DRaCALA: Buffer 2, 20 mM Tris/HCl pH 7.8, 15 mM NaCl, 50 nM labeled ssDNA, 10 min at 20 C; screening also in Buffer 1 (20 mM Tris/HCl pH 7.8, 150 mM NaCl) and Buffer 3 (20 mM Tris/HCl pH 7.8, 15 mM KCl); details: label: 5'-32P

Row | Binder | Kd [1] [nM] | Kd [2] [nM] | Kd [3] [nM] | binding result [4]
1 | B1 | 128 | 1070 | 178 | –
2 | B2 | 117 | 815 | 188 | no binding
3 | GACGGATCGGGAGATCTCCC (ssDNA) [20 base ssDNA] | 59 | 2070 | 269 | –
